Reference: PMC10045489 (Bioengineering, 2023)

Biological target: T1, receptor-binding domain of the SARS-CoV-2 spike protein fused to the maltose-binding protein (SARS-CoV-2, wild-type (Wuhan-Hu-1 …, UniProt P0DTC2))
T1 construct: also called MBP-RBD; RBD-MBP
Assay: BLI
Conditions: both partners purified

B1: VHH72 nanobody (VHH)
VHH: QVQLQESGGGLVQAGGSLRLSCAASGRTFSEYAMGWFRQAPGKEREFVATISWSGGSTYYTDSVKGRFTISRDNAKNTVYLQMNSLKPDDTAVYYCAAAGLGTVVSEWDYDYDYWGQGTQVTVSS
notes: not shown: ecotin, N-terminal, cleaved; His-tag, N-terminal, cleaved
Q: Does B1 bind?
A: Result: binds
